Measured values published in publication PMC10975748 (2024).

Target: Kv1.2 (Homo sapiens, UniProt P16389)
Assay: patch-clamp electrophysiology

Kv1.2, sequence (P16389 whole entry): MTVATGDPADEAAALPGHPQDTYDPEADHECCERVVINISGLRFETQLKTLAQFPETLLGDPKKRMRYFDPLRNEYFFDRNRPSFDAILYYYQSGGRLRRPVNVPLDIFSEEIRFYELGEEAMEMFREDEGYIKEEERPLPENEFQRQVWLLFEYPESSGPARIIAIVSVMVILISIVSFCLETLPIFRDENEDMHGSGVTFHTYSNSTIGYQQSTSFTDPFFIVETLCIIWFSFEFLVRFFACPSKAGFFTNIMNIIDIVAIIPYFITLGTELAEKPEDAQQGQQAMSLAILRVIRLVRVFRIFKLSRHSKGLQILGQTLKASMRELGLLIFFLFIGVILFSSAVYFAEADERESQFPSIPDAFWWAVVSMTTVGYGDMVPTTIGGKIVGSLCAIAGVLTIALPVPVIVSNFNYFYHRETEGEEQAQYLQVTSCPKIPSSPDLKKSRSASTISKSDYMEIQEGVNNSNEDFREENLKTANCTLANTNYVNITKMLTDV

Which Kd does the source give for TFINHKCKSSSECLPACKAAIGRASGKCINSTCKCYY [Cm39] here?
Its Kd is 65 nM.
